Results as given in paper PMC5555194, “Disease-linked mutations in factor H reveal pivotal role of cofactor activity in self-surface–selective regulation of complement activation” (The Journal of Biological Chemistry, 2017).
“And” between values parts separate entries of the source, which are not always exact repeats. Equal entries are not always repeated.

B1: I62-CFH (recombinant human complement factor H, variant Ile-62, Tyr-402, Asp-936) (natural protein, UniProt P08603 19-1231, looked up)
chain: EDCNELPPRRNTEILTGSWSDQTYPEGTQAIYKCRPGYRSLGNIIMVCRKGEWVALNPLRKCQKRPCGHPGDTPFGTFTLTGGNVFEYGVKAVYTCNEGYQLLGEINYRECDTDGWTNDIPICEVVKCLPVTAPENGKIVSSAMEPDREYHFGQAVRFVCNSGYKIEGDEEMHCSDDGFWSKEKPKCVEISCKSPDVINGSPISQKIIYKENERFQYKCNMGYEYSERGDAVCTESGWRPLPSCEEKSCDNPYIPNGDYSPLRIKHRTGDEITYQCRNGFYPATRGNTAKCTSTGWIPAPRCTLKPCDYPDIKHGGLYHENMRRPYFPVAVGKYYSYYCDEHFETPSGSYWDHIHCTQDGWSPAVPCLRKCYFPYLENGYNQNYGRKFVQGKSIDVACHPGYALPKAQTTVTCMENGWSPTPRCIRVKTCSKSSIDIENGFISESQYTYALKEKAKYQCKLGYVTADGETSGSITCGKDGWSAQPTCIKSCDIPVFMNARTKNDFTWFKLNDTLDYECHDGYESNTGSTTGSIVCGYNGWSDLPICYERECELPKIDVHLVPDRKKDQYKVGEVLKFSCKPGFTIVGPNSVQCYHFGLSPDLPICKEQVQSCGPPPELLNGNVKEKTKEEYGHSEVVEYYCNPRFLMKGPNKIQCVDGEWTTLPVCIVEESTCGDIPELEHGWAQLSSPPYYYGDSVEFNCSESFTMIGHRSITCIHGVWTQLPQCVAIDKLKKCKSSNLIILEEHLKNKKEFDHNSNIRYRCRGKEGWIHTVCINGRWDPEVNCSMAQIQLCPPPPQIPNSHNMTTTLNYRDGEKVSVLCQENYLIQEGEEITCKDGRWQSIPLCVEKIPCSQPPQIEHGTINSSRSSQESYAHGTKLSYTCEGGFRISEENETTCYMGKWSSPPQCEGLPCKSPPDISHGVVAHMSDSYQYGEEVTYKCFEGFGIDGPAIAKCLGEKWSHPPSCIKTDCLSLPSFENAIPMGEKKDVYKAGEQVTYTCATYYKMDGASNVTCINSRWTGRPTCRDTSCVNPPTVQNAYIVSRQMSKYPSGERVRYQCRSPYEMFGDEEVMCLNGNWTEPPQCKDSTGKCGPPPPIDNGDITSFPLSVYAPASSVEYQCQNLYQLEGNKRITCRNGQWSEPPKCLHPCVISREIMENYNIALRWTAKQKLYSRTGESVEFVCKRGYRLSSRSHTLRTTCWDGKLEYPTCAKR
modifications: N-glycans trimmed to the first GlcNAc residues (EndoHf)
notes: complement factor H (CFH), human, CCPs 1-20, allotypic variant Ile-62, Tyr-402, Asp-936; Expressed from the vector pPICZaB and secreted; also called I62,D936-CFH; IYD-CFH; source: P. pastoris KM71H, secreted, enzymatically deglycosylated, chromatographically purified
B2: R53H-CFH (on Ile-62 background) (natural protein, human, UniProt P08603 19-1231, looked up)
chain: EDCNELPPRRNTEILTGSWSDQTYPEGTQAIYKCHPGYRSLGNIIMVCRKGEWVALNPLRKCQKRPCGHPGDTPFGTFTLTGGNVFEYGVKAVYTCNEGYQLLGEINYRECDTDGWTNDIPICEVVKCLPVTAPENGKIVSSAMEPDREYHFGQAVRFVCNSGYKIEGDEEMHCSDDGFWSKEKPKCVEISCKSPDVINGSPISQKIIYKENERFQYKCNMGYEYSERGDAVCTESGWRPLPSCEEKSCDNPYIPNGDYSPLRIKHRTGDEITYQCRNGFYPATRGNTAKCTSTGWIPAPRCTLKPCDYPDIKHGGLYHENMRRPYFPVAVGKYYSYYCDEHFETPSGSYWDHIHCTQDGWSPAVPCLRKCYFPYLENGYNQNYGRKFVQGKSIDVACHPGYALPKAQTTVTCMENGWSPTPRCIRVKTCSKSSIDIENGFISESQYTYALKEKAKYQCKLGYVTADGETSGSITCGKDGWSAQPTCIKSCDIPVFMNARTKNDFTWFKLNDTLDYECHDGYESNTGSTTGSIVCGYNGWSDLPICYERECELPKIDVHLVPDRKKDQYKVGEVLKFSCKPGFTIVGPNSVQCYHFGLSPDLPICKEQVQSCGPPPELLNGNVKEKTKEEYGHSEVVEYYCNPRFLMKGPNKIQCVDGEWTTLPVCIVEESTCGDIPELEHGWAQLSSPPYYYGDSVEFNCSESFTMIGHRSITCIHGVWTQLPQCVAIDKLKKCKSSNLIILEEHLKNKKEFDHNSNIRYRCRGKEGWIHTVCINGRWDPEVNCSMAQIQLCPPPPQIPNSHNMTTTLNYRDGEKVSVLCQENYLIQEGEEITCKDGRWQSIPLCVEKIPCSQPPQIEHGTINSSRSSQESYAHGTKLSYTCEGGFRISEENETTCYMGKWSSPPQCEGLPCKSPPDISHGVVAHMSDSYQYGEEVTYKCFEGFGIDGPAIAKCLGEKWSHPPSCIKTDCLSLPSFENAIPMGEKKDVYKAGEQVTYTCATYYKMDGASNVTCINSRWTGRPTCRDTSCVNPPTVQNAYIVSRQMSKYPSGERVRYQCRSPYEMFGDEEVMCLNGNWTEPPQCKDSTGKCGPPPPIDNGDITSFPLSVYAPASSVEYQCQNLYQLEGNKRITCRNGQWSEPPKCLHPCVISREIMENYNIALRWTAKQKLYSRTGESVEFVCKRGYRLSSRSHTLRTTCWDGKLEYPTCAKR
modifications: N-glycans trimmed to the first GlcNAc residues (EndoHf)
notes: complement factor H (CFH), human, CCPs 1-20, aHUS-linked mutation R53H on the background Ile-62, Tyr-402, Asp-936; Expressed from the vector pPICZaB and secreted; the native signal peptide is probably absent; also called R53-CFH; source: P. pastoris KM71H, secreted, enzymatically deglycosylated, chromatographically purified
B3: S1191L/V1197A-CFH (LA-CFH, on Ile-62 background) (natural protein, human, UniProt P08603 19-1231, looked up)
chain: EDCNELPPRRNTEILTGSWSDQTYPEGTQAIYKCRPGYRSLGNIIMVCRKGEWVALNPLRKCQKRPCGHPGDTPFGTFTLTGGNVFEYGVKAVYTCNEGYQLLGEINYRECDTDGWTNDIPICEVVKCLPVTAPENGKIVSSAMEPDREYHFGQAVRFVCNSGYKIEGDEEMHCSDDGFWSKEKPKCVEISCKSPDVINGSPISQKIIYKENERFQYKCNMGYEYSERGDAVCTESGWRPLPSCEEKSCDNPYIPNGDYSPLRIKHRTGDEITYQCRNGFYPATRGNTAKCTSTGWIPAPRCTLKPCDYPDIKHGGLYHENMRRPYFPVAVGKYYSYYCDEHFETPSGSYWDHIHCTQDGWSPAVPCLRKCYFPYLENGYNQNYGRKFVQGKSIDVACHPGYALPKAQTTVTCMENGWSPTPRCIRVKTCSKSSIDIENGFISESQYTYALKEKAKYQCKLGYVTADGETSGSITCGKDGWSAQPTCIKSCDIPVFMNARTKNDFTWFKLNDTLDYECHDGYESNTGSTTGSIVCGYNGWSDLPICYERECELPKIDVHLVPDRKKDQYKVGEVLKFSCKPGFTIVGPNSVQCYHFGLSPDLPICKEQVQSCGPPPELLNGNVKEKTKEEYGHSEVVEYYCNPRFLMKGPNKIQCVDGEWTTLPVCIVEESTCGDIPELEHGWAQLSSPPYYYGDSVEFNCSESFTMIGHRSITCIHGVWTQLPQCVAIDKLKKCKSSNLIILEEHLKNKKEFDHNSNIRYRCRGKEGWIHTVCINGRWDPEVNCSMAQIQLCPPPPQIPNSHNMTTTLNYRDGEKVSVLCQENYLIQEGEEITCKDGRWQSIPLCVEKIPCSQPPQIEHGTINSSRSSQESYAHGTKLSYTCEGGFRISEENETTCYMGKWSSPPQCEGLPCKSPPDISHGVVAHMSDSYQYGEEVTYKCFEGFGIDGPAIAKCLGEKWSHPPSCIKTDCLSLPSFENAIPMGEKKDVYKAGEQVTYTCATYYKMDGASNVTCINSRWTGRPTCRDTSCVNPPTVQNAYIVSRQMSKYPSGERVRYQCRSPYEMFGDEEVMCLNGNWTEPPQCKDSTGKCGPPPPIDNGDITSFPLSVYAPASSVEYQCQNLYQLEGNKRITCRNGQWSEPPKCLHPCVISREIMENYNIALRWTAKQKLYLRTGESAEFVCKRGYRLSSRSHTLRTTCWDGKLEYPTCAKR
modifications: N-glycans trimmed to the first GlcNAc residues (EndoHf)
notes: complement factor H (CFH), human, CCPs 1-20, aHUS-linked double mutation S1191L/V1197A on the background Ile-62, Tyr-402, Asp-936; Expressed from the vector pPICZaB and secreted; the native signal peptide is probably absent; source: P. pastoris KM71H, secreted, enzymatically deglycosylated, chromatographically purified
B4: V62-CFH (recombinant human complement factor H, variant Val-62, Tyr-402, Glu-936) (natural protein, UniProt P08603 19-1231, looked up)
chain: EDCNELPPRRNTEILTGSWSDQTYPEGTQAIYKCRPGYRSLGNVIMVCRKGEWVALNPLRKCQKRPCGHPGDTPFGTFTLTGGNVFEYGVKAVYTCNEGYQLLGEINYRECDTDGWTNDIPICEVVKCLPVTAPENGKIVSSAMEPDREYHFGQAVRFVCNSGYKIEGDEEMHCSDDGFWSKEKPKCVEISCKSPDVINGSPISQKIIYKENERFQYKCNMGYEYSERGDAVCTESGWRPLPSCEEKSCDNPYIPNGDYSPLRIKHRTGDEITYQCRNGFYPATRGNTAKCTSTGWIPAPRCTLKPCDYPDIKHGGLYHENMRRPYFPVAVGKYYSYYCDEHFETPSGSYWDHIHCTQDGWSPAVPCLRKCYFPYLENGYNQNYGRKFVQGKSIDVACHPGYALPKAQTTVTCMENGWSPTPRCIRVKTCSKSSIDIENGFISESQYTYALKEKAKYQCKLGYVTADGETSGSITCGKDGWSAQPTCIKSCDIPVFMNARTKNDFTWFKLNDTLDYECHDGYESNTGSTTGSIVCGYNGWSDLPICYERECELPKIDVHLVPDRKKDQYKVGEVLKFSCKPGFTIVGPNSVQCYHFGLSPDLPICKEQVQSCGPPPELLNGNVKEKTKEEYGHSEVVEYYCNPRFLMKGPNKIQCVDGEWTTLPVCIVEESTCGDIPELEHGWAQLSSPPYYYGDSVEFNCSESFTMIGHRSITCIHGVWTQLPQCVAIDKLKKCKSSNLIILEEHLKNKKEFDHNSNIRYRCRGKEGWIHTVCINGRWDPEVNCSMAQIQLCPPPPQIPNSHNMTTTLNYRDGEKVSVLCQENYLIQEGEEITCKDGRWQSIPLCVEKIPCSQPPQIEHGTINSSRSSQESYAHGTKLSYTCEGGFRISEENETTCYMGKWSSPPQCEGLPCKSPPEISHGVVAHMSDSYQYGEEVTYKCFEGFGIDGPAIAKCLGEKWSHPPSCIKTDCLSLPSFENAIPMGEKKDVYKAGEQVTYTCATYYKMDGASNVTCINSRWTGRPTCRDTSCVNPPTVQNAYIVSRQMSKYPSGERVRYQCRSPYEMFGDEEVMCLNGNWTEPPQCKDSTGKCGPPPPIDNGDITSFPLSVYAPASSVEYQCQNLYQLEGNKRITCRNGQWSEPPKCLHPCVISREIMENYNIALRWTAKQKLYSRTGESVEFVCKRGYRLSSRSHTLRTTCWDGKLEYPTCAKR
modifications: N-glycans trimmed to the first GlcNAc residues (EndoHf)
notes: complement factor H (CFH), human, CCPs 1-20, allotypic variant Val-62, Tyr-402, Glu-936; Expressed from the vector pPICZaB and secreted; also called V62,E936-CFH; recombinant CFH; source: P. pastoris KM71H, secreted, enzymatically deglycosylated, chromatographically purified

Experiments:
C3b [1] = molecular target: T1, C3b (human, UniProt P01024 23-667; P01024 749-1663); assay: SPR; C3b amine-coupled to a Biacore C1 chip; dilution series of CFH (from 2.5 to 0.019 uM), preincubated with or without a 2-fold molar excess of PspCN, flowed over; Biacore T200, 25 °C, 10 mM HEPES, 150 mM NaCl, 0.05% P20; 1:1 steady-state model; three experiments on different chips; conditions: both partners purified
T1 construct: Amine-coupled to the sensor chip; source: bought: Complement Technology (plasma-derived, human)
T1 sequence (P01024 23-667, chain 1 of 2): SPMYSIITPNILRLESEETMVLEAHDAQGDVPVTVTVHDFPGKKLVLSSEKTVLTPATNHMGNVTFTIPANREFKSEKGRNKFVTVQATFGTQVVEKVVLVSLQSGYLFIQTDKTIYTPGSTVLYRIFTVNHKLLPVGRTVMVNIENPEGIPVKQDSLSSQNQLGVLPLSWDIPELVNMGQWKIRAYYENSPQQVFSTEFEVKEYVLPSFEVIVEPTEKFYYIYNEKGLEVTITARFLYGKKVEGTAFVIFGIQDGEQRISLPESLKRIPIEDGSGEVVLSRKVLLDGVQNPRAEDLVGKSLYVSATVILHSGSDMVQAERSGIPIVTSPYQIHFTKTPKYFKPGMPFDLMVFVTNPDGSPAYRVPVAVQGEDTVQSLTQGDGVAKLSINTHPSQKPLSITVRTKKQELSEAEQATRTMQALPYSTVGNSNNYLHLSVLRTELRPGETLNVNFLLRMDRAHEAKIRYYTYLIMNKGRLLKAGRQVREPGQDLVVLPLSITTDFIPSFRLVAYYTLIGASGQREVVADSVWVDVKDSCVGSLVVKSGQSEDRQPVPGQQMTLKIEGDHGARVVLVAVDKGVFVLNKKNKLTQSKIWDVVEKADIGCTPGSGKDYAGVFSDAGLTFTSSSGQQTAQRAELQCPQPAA
T1 sequence (P01024 749-1663, chain 2 of 2): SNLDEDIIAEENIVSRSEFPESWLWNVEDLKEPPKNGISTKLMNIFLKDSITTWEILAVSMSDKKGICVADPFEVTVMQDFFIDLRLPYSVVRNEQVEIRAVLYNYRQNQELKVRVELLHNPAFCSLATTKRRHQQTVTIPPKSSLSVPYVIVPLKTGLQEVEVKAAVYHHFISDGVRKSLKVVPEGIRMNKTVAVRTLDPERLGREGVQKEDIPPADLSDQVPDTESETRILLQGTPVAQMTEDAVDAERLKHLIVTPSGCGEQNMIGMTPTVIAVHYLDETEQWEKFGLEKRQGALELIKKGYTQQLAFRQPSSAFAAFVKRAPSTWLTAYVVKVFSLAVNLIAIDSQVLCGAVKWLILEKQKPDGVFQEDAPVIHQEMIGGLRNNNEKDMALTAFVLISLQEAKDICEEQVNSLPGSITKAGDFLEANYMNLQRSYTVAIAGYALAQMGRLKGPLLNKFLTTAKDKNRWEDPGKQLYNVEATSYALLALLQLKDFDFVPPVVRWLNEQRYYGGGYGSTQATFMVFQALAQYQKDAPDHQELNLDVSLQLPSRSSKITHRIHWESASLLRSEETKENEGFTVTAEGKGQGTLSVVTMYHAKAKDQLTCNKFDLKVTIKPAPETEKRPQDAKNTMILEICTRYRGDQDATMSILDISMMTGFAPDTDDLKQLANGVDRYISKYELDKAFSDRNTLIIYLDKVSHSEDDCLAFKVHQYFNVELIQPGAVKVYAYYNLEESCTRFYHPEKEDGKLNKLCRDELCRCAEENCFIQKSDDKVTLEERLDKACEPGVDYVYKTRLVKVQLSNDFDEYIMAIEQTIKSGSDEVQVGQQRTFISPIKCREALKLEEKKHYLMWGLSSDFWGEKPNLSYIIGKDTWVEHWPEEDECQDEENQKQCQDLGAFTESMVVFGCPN

C3b [2] = molecular target: T1, C3b; assay: as above; conditions: both partners purified; remark: listed apart in the source

Binder	Kd (C3b [1])	Kd (C3b [2])
B1	1000 to 1300 nM	
B2	1000 nM	1200 nM and 1800 nM
B3		830 nM and 860 nM
B4		270 nM
